For the experiment, the target named is Recombinant human GCK (residues 16-465) fused to a N-terminal hexahistidine tag (human) (UniProt P35557).

We go through 1 substance from article PMC8780509.

UniProt P35557, sequence (P35557 16-465): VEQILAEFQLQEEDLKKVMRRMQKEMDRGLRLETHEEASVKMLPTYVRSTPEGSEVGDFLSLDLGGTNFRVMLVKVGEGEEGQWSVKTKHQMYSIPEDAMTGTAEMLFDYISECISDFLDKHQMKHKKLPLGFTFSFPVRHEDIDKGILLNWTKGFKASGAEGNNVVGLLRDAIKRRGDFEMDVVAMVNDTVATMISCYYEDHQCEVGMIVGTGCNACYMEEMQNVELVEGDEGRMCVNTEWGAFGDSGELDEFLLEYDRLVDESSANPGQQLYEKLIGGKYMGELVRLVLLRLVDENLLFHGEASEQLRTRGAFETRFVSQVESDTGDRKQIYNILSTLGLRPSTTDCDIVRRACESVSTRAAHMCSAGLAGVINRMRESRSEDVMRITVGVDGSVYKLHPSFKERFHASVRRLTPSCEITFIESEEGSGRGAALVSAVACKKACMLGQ

With “Purified NS5A-D2 protein (amino acids 250 to 342) (domain or fragment)”, the maximum velocity (Vmax) of purified GCK, increase in the presence of NS5A-D2 came to 31%.
